# Source: paper PMC6101532
# Columns and labels:
# [1] = target: MBP–RsbN α3 (maltose binding protein joined by a linker to RsbN α3) (Streptomyces venezuelae); assay: SEC
# [2] = target: his-tagged RsbN(1–91) (Streptomyces venezuelae); assay: SEC
Substance,stoichiometry N [1],stoichiometry N [2]
"BldN (σ^BldN), full length, wild type (natural protein)",1,–
"BldN domain 2 (σ2), non-tagged (domain or fragment)",–,1
"BldN domain 4 (σ4), non-tagged (domain or fragment)",–,1
